Measurements taken from US20240010722A1 (published 2024).
Changes are numbered by the printed parent chain.

T1: human MAdCAM (human, UniProt Q13477 19-317, limits assumed)
T1 construct: also called huMAdCAM; human MAdCAM-1
T1 sequence (looked up): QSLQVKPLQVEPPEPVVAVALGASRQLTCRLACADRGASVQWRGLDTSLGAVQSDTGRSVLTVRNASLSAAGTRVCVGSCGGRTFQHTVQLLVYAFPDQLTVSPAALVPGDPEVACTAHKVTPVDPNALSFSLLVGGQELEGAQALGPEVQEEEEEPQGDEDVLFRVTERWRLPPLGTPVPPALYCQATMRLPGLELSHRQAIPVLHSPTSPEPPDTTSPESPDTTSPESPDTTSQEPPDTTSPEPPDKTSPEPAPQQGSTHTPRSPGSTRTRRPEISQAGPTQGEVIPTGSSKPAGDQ

B1: PMAB2 (bispecific antibody, human IgG1, kappa)
heavy: EVQLLESGGGLVQPGGSLRLSCAASGFTFSNSDMSWVRQAPGKGLEWVSGITISGGSTYYADSVKGRFTISRDNSKNTLYLQMNSLRAEDTAVYYCARGRGGSGWLDYWGQGTLVTVSSASTKGPSVFPLAPSSKSTSGGTAALGCLVKDYFPEPVTVSWNSGALTSGVHTFPAVLQSSGLYSLSSVVTVPSSSLGTQTYICNVNHKPSNTKVDKKVEPKSCDKTHTCPPCPAPEAAGAPSVFLFPPKPKDTLMISRTPEVTCVVVDVSHEDPEVKFNWYVDGVEVHNAKTKPREEQYNSTYRVVSVLTVLHQDWLNGKEYKCKVSNKALPAPIEKTISKAKGQPREPQVYTLPPSREEMTKNQVSLTCLVKGFYPSDIAVEWESNGQPENNYKTTPPVLDSDGSFFLYSKLTVDKSRWQQGNVFSCSVMHEALHNHYTQKSLSLSPGGGGGSGGGGSGGGGSEVQLLESGGGLVQPGGSLRLSCAASGFTFSSYWMHWVRQAPGKGLEWVSAISGSSGSTYYADSVKGRFTISRDNSKNTLYLQMNSLRAEDTAVYYCARDRPYGYYMDVWGKGTTVTVSSGGGGSGGGGSGGGGSGGGGSDIQMTQSPSSLSASVGDRVTITCRASQSISSSLAWYQQKPGKAPKLLIYAASSLQSGVPSRFSGSGSGTDFTLTISSLQPEDFATYYCQQYKSYPVTFGQGTKVEIK
light: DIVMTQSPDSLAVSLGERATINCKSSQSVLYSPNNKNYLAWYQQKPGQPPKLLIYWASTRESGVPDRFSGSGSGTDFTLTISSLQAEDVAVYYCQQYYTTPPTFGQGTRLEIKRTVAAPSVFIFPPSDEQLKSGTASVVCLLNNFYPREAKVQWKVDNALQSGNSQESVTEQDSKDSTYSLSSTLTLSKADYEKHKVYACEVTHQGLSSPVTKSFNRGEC
B2: PMAB49 (bispecific antibody, human IgG1, kappa)
heavy: EVQLLESGGGLVQPGGSLRLSCAASGFTFSNSDMSWVRQAPGKGLEWVSGITISGGSTYYADSVKGRFTISRDNSKNTLYLQMNSLRAEDTAVYYCARGRGGSGWLDYWGQGTLVTVSSASTKGPSVFPLAPSSKSTSGGTAALGCLVKDYFPEPVTVSWNSGALTSGVHTFPAVLQSSGLYSLSSVVTVPSSSLGTQTYICNVNHKPSNTKVDKKVEPKSCDKTHTCPPCPAPEAAGAPSVFLFPPKPKDTLMISRTPEVTCVVVDVSHEDPEVKFNWYVDGVEVHNAKTKPREEQYNSTYRVVSVLTVLHQDWLNGKEYKCKVSNKALPAPIEKTISKAKGQPREPQVYTLPPSREEMTKNQVSLTCLVKGFYPSDIAVEWESNGQPENNYKTTPPVLDSDGSFFLYSKLTVDKSRWQQGNVFSCSVMHEALHNHYTQKSLSLSPGGGGGSGGGGSGGGGSEVQLLESGGGLVQPGGSLRLSCAASGFTFSDFWMHWVRQAPGKGLEWISYISGDSGYTNYADSVKGRFTISRDNSKNTLYLQMNSLRAEDTAVYYCARDRPYYYDMDVWGKGTTVTVSSGGGGSGGGGSGGGGSGGGGSDIQMTQSPSSLSASVGDRVTITCRASQSVSRSLAWYQQKPGKAPKLLIYAASSLQSGVPSRFSGSGSGTDFTLTISSLQPEDFATYYCQQYKSYPVTFGQGTKVEIK
light: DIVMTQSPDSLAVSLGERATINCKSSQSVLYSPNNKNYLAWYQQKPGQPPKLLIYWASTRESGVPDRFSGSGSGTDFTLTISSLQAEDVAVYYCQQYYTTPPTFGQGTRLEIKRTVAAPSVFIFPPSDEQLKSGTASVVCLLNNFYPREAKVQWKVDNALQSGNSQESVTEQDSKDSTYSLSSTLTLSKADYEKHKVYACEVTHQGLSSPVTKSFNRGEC
B3: PMAB21 (bispecific antibody, human IgG1, kappa)
heavy: B2 heavy with W496A, D568Y
light: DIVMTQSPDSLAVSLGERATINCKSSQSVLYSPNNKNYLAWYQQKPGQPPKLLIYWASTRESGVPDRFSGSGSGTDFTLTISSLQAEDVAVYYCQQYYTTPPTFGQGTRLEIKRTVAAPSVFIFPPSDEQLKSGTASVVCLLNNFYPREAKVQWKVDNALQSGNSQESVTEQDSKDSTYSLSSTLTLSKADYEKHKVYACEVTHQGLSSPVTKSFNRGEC
B4: PMAB9 (bispecific antibody, human IgG1, kappa)
heavy: B1 heavy with V511I, S518G, G566Y, S633R
light: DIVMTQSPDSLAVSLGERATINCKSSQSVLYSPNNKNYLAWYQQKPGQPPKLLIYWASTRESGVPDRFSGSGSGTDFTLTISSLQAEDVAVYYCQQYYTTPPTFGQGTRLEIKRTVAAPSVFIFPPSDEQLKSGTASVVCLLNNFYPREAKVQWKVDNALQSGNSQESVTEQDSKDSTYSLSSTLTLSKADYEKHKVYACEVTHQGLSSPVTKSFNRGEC
B5: PMAB11 (bispecific antibody, human IgG1, kappa)
heavy: B1 heavy with S518G, G566Y
light: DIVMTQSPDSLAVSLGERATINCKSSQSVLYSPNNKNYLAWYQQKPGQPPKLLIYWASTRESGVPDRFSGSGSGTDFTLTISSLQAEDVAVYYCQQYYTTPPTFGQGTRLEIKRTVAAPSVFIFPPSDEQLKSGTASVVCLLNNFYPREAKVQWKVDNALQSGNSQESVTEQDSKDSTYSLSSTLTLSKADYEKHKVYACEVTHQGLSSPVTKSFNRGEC
B6: PMAB6 (bispecific antibody, human IgG1, kappa)
heavy: B1 heavy with V511I, S518G
light: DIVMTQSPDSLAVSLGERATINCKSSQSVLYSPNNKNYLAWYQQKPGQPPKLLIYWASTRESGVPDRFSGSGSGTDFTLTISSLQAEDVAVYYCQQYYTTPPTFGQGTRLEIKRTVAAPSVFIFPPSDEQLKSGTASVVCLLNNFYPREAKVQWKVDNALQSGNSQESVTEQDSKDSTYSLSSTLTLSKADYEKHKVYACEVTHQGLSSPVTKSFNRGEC
B7: PMAB4 (bispecific antibody, human IgG1, kappa)
heavy: B1 heavy with S633R
light: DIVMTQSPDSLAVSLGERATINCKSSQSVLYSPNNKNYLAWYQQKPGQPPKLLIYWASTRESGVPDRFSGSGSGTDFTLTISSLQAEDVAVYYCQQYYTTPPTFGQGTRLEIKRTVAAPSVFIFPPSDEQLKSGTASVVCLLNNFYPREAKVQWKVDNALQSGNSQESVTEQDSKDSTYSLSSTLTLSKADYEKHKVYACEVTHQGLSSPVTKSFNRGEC
B8: PMAB3 (bispecific antibody, human IgG1, kappa)
heavy: B1 heavy with G566Y
light: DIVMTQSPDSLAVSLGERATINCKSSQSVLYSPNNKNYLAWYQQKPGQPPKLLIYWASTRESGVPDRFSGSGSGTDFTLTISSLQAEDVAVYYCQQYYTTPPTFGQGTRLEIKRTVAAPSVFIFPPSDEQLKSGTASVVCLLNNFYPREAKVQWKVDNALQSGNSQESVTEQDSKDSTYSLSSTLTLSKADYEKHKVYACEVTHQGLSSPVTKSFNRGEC
B9: PMAB43 (bispecific antibody, human IgG1, kappa)
heavy: B2 heavy with D568Y, V698R
light: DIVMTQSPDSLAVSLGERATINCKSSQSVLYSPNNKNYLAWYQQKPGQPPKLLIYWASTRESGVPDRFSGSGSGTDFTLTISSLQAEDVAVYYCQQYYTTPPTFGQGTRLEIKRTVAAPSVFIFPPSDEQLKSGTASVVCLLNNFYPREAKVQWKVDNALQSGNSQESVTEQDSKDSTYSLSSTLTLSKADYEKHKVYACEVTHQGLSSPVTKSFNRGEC
B10: PMAB10 (bispecific antibody, human IgG1, kappa)
heavy: B1 heavy with S518G
light: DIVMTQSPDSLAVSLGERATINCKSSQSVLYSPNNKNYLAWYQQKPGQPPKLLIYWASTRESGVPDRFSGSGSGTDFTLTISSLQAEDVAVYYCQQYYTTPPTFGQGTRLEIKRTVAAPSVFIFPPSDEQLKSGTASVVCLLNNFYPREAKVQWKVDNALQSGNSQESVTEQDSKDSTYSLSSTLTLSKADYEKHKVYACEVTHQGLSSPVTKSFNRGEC
B11: PMAB5 (bispecific antibody, human IgG1, kappa)
heavy: B1 heavy with G566Y, S633R
light: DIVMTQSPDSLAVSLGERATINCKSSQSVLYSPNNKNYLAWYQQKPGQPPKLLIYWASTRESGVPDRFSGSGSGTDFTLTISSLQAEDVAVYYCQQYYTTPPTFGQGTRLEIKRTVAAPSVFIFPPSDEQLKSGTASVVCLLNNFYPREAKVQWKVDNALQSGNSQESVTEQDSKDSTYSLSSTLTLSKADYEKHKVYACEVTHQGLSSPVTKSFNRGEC
B12: PMAB12 (bispecific antibody, human IgG1, kappa)
heavy: B1 heavy with S518G, S633R
light: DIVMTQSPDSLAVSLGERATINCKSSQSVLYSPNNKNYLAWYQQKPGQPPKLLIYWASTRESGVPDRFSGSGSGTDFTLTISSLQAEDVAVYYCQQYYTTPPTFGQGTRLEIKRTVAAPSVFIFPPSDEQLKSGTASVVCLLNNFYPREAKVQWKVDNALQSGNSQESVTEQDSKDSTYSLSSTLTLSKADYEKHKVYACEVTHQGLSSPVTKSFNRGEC
B13: PMAB39 (bispecific antibody, human IgG1, kappa)
heavy: B2 heavy with D568Y, A636N
light: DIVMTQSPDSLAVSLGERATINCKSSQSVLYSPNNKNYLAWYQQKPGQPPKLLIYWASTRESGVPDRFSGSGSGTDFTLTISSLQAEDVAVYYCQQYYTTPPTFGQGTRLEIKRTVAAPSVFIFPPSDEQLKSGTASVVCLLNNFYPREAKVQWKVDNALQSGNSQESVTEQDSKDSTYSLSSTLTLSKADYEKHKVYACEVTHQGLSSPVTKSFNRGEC
B14: PMAB13 (bispecific antibody, human IgG1, kappa)
heavy: B1 heavy with S518G, G566Y, S633R
light: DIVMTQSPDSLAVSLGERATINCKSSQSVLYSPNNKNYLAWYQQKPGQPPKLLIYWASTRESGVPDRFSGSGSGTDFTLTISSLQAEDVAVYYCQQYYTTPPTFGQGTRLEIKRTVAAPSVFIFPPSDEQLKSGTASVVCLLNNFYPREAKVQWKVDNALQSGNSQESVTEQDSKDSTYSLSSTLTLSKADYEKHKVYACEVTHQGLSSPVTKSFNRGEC
B15: PMAB38 (bispecific antibody, human IgG1, kappa)
heavy: B2 heavy with D568Y, S634Y
light: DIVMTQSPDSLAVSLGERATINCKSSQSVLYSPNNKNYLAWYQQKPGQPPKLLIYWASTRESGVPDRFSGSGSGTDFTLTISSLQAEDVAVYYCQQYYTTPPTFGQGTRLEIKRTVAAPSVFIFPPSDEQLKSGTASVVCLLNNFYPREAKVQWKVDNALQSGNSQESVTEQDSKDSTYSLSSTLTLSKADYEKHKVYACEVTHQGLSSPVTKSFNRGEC
B16: PMAB7 (bispecific antibody, human IgG1, kappa)
heavy: B1 heavy with V511I, S518G, G566Y
light: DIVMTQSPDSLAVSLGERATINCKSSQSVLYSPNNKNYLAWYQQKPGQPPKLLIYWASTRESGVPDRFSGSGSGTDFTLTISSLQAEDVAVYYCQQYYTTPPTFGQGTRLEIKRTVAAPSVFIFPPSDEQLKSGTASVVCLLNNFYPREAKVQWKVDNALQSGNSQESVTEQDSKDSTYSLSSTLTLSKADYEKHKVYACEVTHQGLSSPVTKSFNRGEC
B17: PMAB8 (bispecific antibody, human IgG1, kappa)
heavy: B1 heavy with V511I, S518G, S633R
light: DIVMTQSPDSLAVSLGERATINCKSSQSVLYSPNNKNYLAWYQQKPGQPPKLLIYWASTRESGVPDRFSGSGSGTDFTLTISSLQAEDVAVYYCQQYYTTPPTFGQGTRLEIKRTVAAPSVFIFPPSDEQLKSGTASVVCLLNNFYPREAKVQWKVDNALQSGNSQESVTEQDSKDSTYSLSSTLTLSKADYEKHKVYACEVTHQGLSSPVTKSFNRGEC
B18: PMAB47 (bispecific antibody, human IgG1, kappa)
heavy: B2 heavy with Y566N, D568Y
light: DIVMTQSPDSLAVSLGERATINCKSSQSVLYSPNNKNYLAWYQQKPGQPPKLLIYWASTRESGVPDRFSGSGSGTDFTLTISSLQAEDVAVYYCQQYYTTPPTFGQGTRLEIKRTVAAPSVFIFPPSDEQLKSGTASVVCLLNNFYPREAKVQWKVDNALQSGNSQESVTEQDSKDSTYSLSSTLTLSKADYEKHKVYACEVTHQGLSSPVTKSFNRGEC
B19: PMAB51 (bispecific antibody, human IgG1, kappa)
heavy: B2 heavy with D568K
light: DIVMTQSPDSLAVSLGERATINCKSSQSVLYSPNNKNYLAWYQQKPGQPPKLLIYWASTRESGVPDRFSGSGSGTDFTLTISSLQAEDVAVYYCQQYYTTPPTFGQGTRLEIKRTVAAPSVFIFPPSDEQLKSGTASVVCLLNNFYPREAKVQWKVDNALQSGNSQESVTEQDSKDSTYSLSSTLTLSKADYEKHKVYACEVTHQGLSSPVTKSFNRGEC
B20: PMAB46 (bispecific antibody, human IgG1, kappa)
heavy: B2 heavy with Y566G, D568Y
light: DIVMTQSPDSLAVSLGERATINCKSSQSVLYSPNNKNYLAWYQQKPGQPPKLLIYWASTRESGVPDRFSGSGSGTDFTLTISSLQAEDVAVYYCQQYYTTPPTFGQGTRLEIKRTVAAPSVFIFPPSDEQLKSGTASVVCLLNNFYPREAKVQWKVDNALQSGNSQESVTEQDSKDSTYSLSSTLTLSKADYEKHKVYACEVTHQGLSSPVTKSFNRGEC
B21: MIAB141 (antibody, V domains shown)
VH: EVQLLESGGGLVQPGGSLRLSCAASGFTFSDFWMHWVRQAPGKGLEWISYISGDSGYTNYADSVKGRFTISRDNSKNTLYLQMNSLRAEDTAVYYCARDRPYYYYMDVWGKGTTVTVSS
VL: DIQMTQSPSSLSASVGDRVTITCRASQSISSYLNWYQQKPGKAPKLLIYAASSLQSGVPSRFSGSGSGTDFTLTISSLQPEDFATYYCQQYKSYPVTFGQGTKVEIK
notes: tested with human Fc
B22: MIAB175 (antibody, V domains shown)
VH: B21 VH with D31S, F32Y
VL: B21 VL with I29V, S31R, Y32S, N34A
notes: tested with human Fc; also called MIAB175-001
B23: MIAB183 (antibody, V domains shown)
VH: B21 VH with D31S, F32Y, I48V, Y50A, D54S, S55G, Y57S, N59Y
VL: B21 VL with I29V, Y32S, N34A
notes: tested with human Fc; also called MIAB183-001
B24: MIAB184 (antibody, V domains shown)
VH: B21 VH with D31S, F32Y, I48V, Y50A, D54S, S55G, Y57S, N59Y
VL: B21 VL with Y32S, N34A
notes: tested with human Fc; also called MIAB184-001
B25: MIAB178 (antibody, V domains shown)
VH: B21 VH with D31S, F32Y, Y50A, D54S, Y57S, N59Y
VL: B21 VL with I29V, S31R, Y32S, N34A
notes: tested with human Fc; also called MIAB178-001
B26: MIAB182 (antibody, V domains shown)
VH: B21 VH with D31S, F32Y, I48V, Y50A, D54S, S55G, Y57S, N59Y
VL: B21 VL with S31R, Y32S, N34A
notes: tested with human Fc; also called MIAB182-001
B27: MIAB177 (antibody, V domains shown)
VH: B21 VH with I48V, Y50A, D54S, S55G, Y57S, N59Y
VL: B21 VL with I29V, S31R, Y32S, N34A
notes: tested with human Fc; also called MIAB177-001
B28: MIAB174 (antibody, V domains shown)
VH: B21 VH with F32Y
VL: B21 VL with I29V, S31R, Y32S, N34A
notes: tested with human Fc; also called MIAB174-001

How the values were obtained:
[1] = biological target: T1, human MAdCAM; test: BLI (Octet), binder on AHC tips
Procedure, shortened: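 Kinetic rates and the dissociation constant come from a global one-to-one fit, performed in the Octet data analysis software, of binding measured on an Octet96 RED with anti-human IgG Fc biosensors. Test article at 10 μg/mL in assay buffer was captured on the tips for 240 s. MAdCAM-1, serially diluted over seven points from 200 nM down to 3.13 nM, then associated for 120 s before 120 s of dissociation in assay buffer.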

[2] = biological target: T1, human MAdCAM; test: BLI (Octet), binder on anti-human Fc tips

Row | Binder | Kd [1] [nM] | koff [1] [s⁻¹] | kon [1] [M⁻¹ s⁻¹] | further results
1 | B1 | 175 | 0.127 | 725000 | –
2 | B2 | 142 | 0.0125 | 87900 | –
3 | B3 | – | – | – | binding result [1]: no binding (tested: 300 nM (top of the dilution series))
4 | B4 | 159 | 0.0725 | 455000 | –
5 | B5 | 466 | 0.195 | 419000 | –
6 | B6 | 150 | 0.105 | 698000 | –
7 | B7 | 41.8 | 0.0547 | 1.31e+06 | –
8 | B8 | 333 | 0.239 | 717000 | –
9 | B9 | – | – | – | binding result [1]: no binding (tested: 200 nM (top of the dilution series))
10 | B10 | 146 | 0.0967 | 662000 | –
11 | B11 | 413 | 0.12 | 290000 | –
12 | B12 | 63.3 | 0.0464 | 733000 | –
13 | B13 | – | – | – | binding result [1]: no binding (tested: 200 nM (top of the dilution series))
14 | B14 | 132 | 0.0717 | 542000 | –
15 | B15 | – | – | – | binding result [1]: no binding (tested: 200 nM (top of the dilution series))
16 | B16 | 236 | 0.136 | 576000 | –
17 | B17 | 71.4 | 0.0469 | 656000 | –
18 | B18 | 219 | 0.072 | 329000 | –
19 | B19 | 93.5 | 0.00952 | 115000 | –
20 | B20 | 37900 | 0.309 | 8160 | –
21 | B21 | – | – | – | binding result [2]: no binding (tested: 150 nM)
22 | B22 | – | – | – | Kd [2]: 22.6 nM; koff [2]: 0.0106 s⁻¹; kon [2]: 471000 M⁻¹ s⁻¹
23 | B23 | – | – | – | Kd [2]: 362 nM; fold reduction of affinity against PRNT1 [2]: 20 fold
24 | B24 | – | – | – | Kd [2]: 563 nM; fold reduction of affinity against PRNT1 [2]: 40 fold; koff [2]: 0.0818 s⁻¹; kon [2]: 145000 M⁻¹ s⁻¹
25 | B25 | – | – | – | Kd [2]: 519 nM; koff [2]: 0.22 s⁻¹; kon [2]: 372000 M⁻¹ s⁻¹
26 | B26 | – | – | – | Kd [2]: 119 nM; fold reduction of affinity against PRNT1 [2]: 10 fold; koff [2]: 0.0267 s⁻¹; kon [2]: 226000 M⁻¹ s⁻¹
27 | B27 | – | – | – | Kd [2]: 218 nM; koff [2]: 0.0851 s⁻¹; kon [2]: 391000 M⁻¹ s⁻¹
28 | B28 | – | – | – | Kd [2]: 21.8 nM; koff [2]: 0.00969 s⁻¹; kon [2]: 445000 M⁻¹ s⁻¹
